{
  "source": "patent US20230241185A1",
  "about": "“COMPOSITION COMPRISING A DNA-DEGRADING ENZYME FOR USE IN A METHOD FOR THE TREATMENT OF IMMUNOSUPPRESSION AFTER ACUTE TISSUE INJURY” (Klinikum der Universität München, priority 2020, published 2023)",
  "molecules": {"B1": {"name": "hrDNase: Human recombinant DNase (Roche, Switzerland), DNA-degrading enzyme (protein, UniProt P24855 23-282, looked up)", "Deoxyribonuclease-1": "LKIAAFNIQTFGETKMSNATLVSYIVQILSRYDIALVQEVRDSHLTAVGKLLDNLNQDAPDTYHYVVSEPLGRNSYKERYLFVYRPDQVSAVDSYYYDDGCEPCGNDTFNREPAIVRFFSRFTEVREFAIVPLHAAPGDAVAEIDALYDVYLDVQEKWGLEDVMLMGDFNAGCSYVRPSQWSSIRLWTSPTFQWLIPDSADTTATPTHCAYDRIVVAGMLLRGAVVPDSALPFNFQAAYGLSDQLAQAISDHYPVEVMLK"}},
  "key": {"splenic CD3^+ T cells": {"system": "splenic CD3^+ T cells", "assay": "Splenic T cell counts by FACS after experimental stroke", "format": "in vivo, mice", "conditions": "hrDNase 1000 U 1 hour after surgery vs vehicle; experimental stroke; normalized to sham", "text": "(§1) Mice were anaesthetized with isoflurane delivered in a mixture of 30% O2 and 70% N2O. An incision was made between the ear and the eye in order to expose the temporal bone. Mice were placed in supine position, and a laser Doppler probe was affixed to the skull above the middle cerebral artery (MCA) territory. The common carotid artery and left external carotid artery were exposed via midline incision and further isolated and ligated. A 2-mm silicon-coated filament (Doccol) was inserted into the internal carotid artery, advanced gently to the MCA until resistance was felt, and occlusion was confirmed by a corresponding decrease in blood flow (i.e., a decrease in the laser Doppler flow signal by 80%. After 60 minutes of occlusion, the animals were re-anesthetized, and the filament was removed. After recovery, the mice were kept in their home cage with ad libitum access to water and food. Sham-operated mice received the same surgical procedure, but the filament was […] in lieu of being advanced to the MCA. Body temperature was maintained at 37° C. throughout surgery in all mice via feedback-controlled heating pad. The overall mortality rate of animals subjected to MCA occlusion was approximately 20%. All animals in the sham group survived the procedure. Exclusion criteria: 1. Insufficient MCA occlusion (a reduction in blood flow to […] of the baseline value). 2. Death during the surgery. 3. Lack of brain ischemia as quantified post-mortem by histological analysis.\nAnti-IL1β: Mice received two injections of antagonizing anti-IL-1β in sterile saline (clone: B122, InVivoMab, BioXcell, US), 1 hour prior to and 1 hour after surgery. Anti-IL-1β or the corresponding IgG control (Armenian hamster IgG, InVivoMab, BioXcell, US) was injected i.p. at a dose of 4 mg kg^−1 body weight in a final volume of 200 μl.\nAnti-FasL: Mice received two injections of antagonizing anti-FasL in sterile saline (clone: MFL3, InVivoMab, BioXcell, US), 1 hour prior to and 1 hour after surgery. […]"}, "splenic B cells": {"system": "splenic B cells", "assay": "Splenic B cell counts by FACS after experimental stroke", "format": "in vivo, mice", "conditions": "hrDNase 1000 U vs control; 18 h after stroke; normalized to sham", "text": "(§2) Mice were anaesthetized with isoflurane delivered in a mixture of 30% O2 and 70% N2O. An incision was made between the ear and the eye in order to expose the temporal bone. Mice were placed in supine position, and a laser Doppler probe was affixed to the skull above the middle cerebral artery (MCA) territory. The common carotid artery and left external carotid artery were exposed via midline incision and further isolated and ligated. […] Lack of brain ischemia as quantified post-mortem by histological analysis. […]\n(§3) The anti-mouse antibodies listed below (see Table 1) were used for surface marker staining of CD45^+ leukocytes, CD45^+CD11b^+ monocytes (+FasL^+ expression), CD3^+ T cells, CD3^+CD4^+ Thelper cells, CD3^+CD8^+ Tcytotox cells and CD19^+ B cells (for representative gating strategy, see FIG. 10A). […] Flow cytometric data was acquired using a BD FACSverse flow cytometer (BD Biosciences) and analyzed using FlowJo software (Treestar)."}, "[1]": {"system": "caspase-1 activity in splenic CD11b^+ monocytes", "assay": "FAM FLICA flow cytometry of caspase-1 activity (inflammasome activation) in splenic monocytes after stroke", "format": "in vivo, mice", "conditions": "hrDNase 1000 U 1 hour after surgery vs vehicle; experimental stroke; splenic monocytes", "text": "as §1\nHuman recombinant DNase (hrDNase): 1000 U of human recombinant DNase (Roche, Switzerland) dissolved in incubation 1× buffer (40 mM Tris-HCl, 10 mM NaCl, 6 mM MgCl2, 1 mM CaCl2, pH 7.9, diluted in PBS, Roche) was injected i.v. in the tail vein 1 hour after surgery in a final volume of 100 μl. The control group was administered vehicle injections at the same volume, route, and timing as experimental animals.\nCaspase-8 inhibitor (Z-IETD-FMK) & Caspase-9 inhibitor (Z-LEHD-FMK): The apoptosis inhibitors Z-IETD-FMK and Z-LEHD-FMK (R&D systems, US) in DMSO dissolved in PBS and injected i.p. 30 minutes after surgery. Z-LEHD-FMK was injected at a dose of […] body weight at a final volume of 200 μl. Z-IETD-FMK was injected at a dose of 0.8 mg kg^−1 body weight at a final volume of 100 μl. The control groups were administered vehicle injections at the same volume, route, and timing as experimental animals.\nTo detect the active forms of caspase-1 in blood, spleen, and bone marrow samples, cell suspensions were stained with the fluorescent inhibitor probe FAM-YVAD-FMK (FAM FLICA, BioRad, Germany) for 30 minutes at 37° C. according to the manufacturer's instructions. After washing, the cells were stained for CD45^+CD3^+ T cells and CD45^+Cd11b^+ monocytes. The flow cytometry data was acquired on a BD FACSVerse (for representative gating strategy, see FIG. 10B)."}, "cf-dsDNA": {"system": "cf-dsDNA", "assay": "Cell-free dsDNA quantification in serum/plasma after stroke", "format": "in vivo, mice", "conditions": "hrDNase 1000 U vs vehicle, 6 h after stroke or sham surgery", "text": "as §2\nCell-free nucleic acids (RNA, single strand (ss) DNA and double strand (ds) DNA) levels in the plasma of mice and human patients was assessed with a Qubit 2.0 fluorometer (Invitrogen) using specific fluorescent dyes which bind either ssDNA (ssDNA Assay Kit, Thermo Fisher Scientific) or dsDNA (HS dsDNA Assay kit, Thermo Fisher Scientific). […]"}, "[2]": {"system": "FasL on CD11b^+ monocytes", "assay": "FasL expression on splenic CD11b+ monocytes by FACS after stroke", "format": "in vivo, mice", "conditions": "hrDNase 1000 U after stroke vs control", "text": "as §2, §3"}, "FasL on BMDMs": {"system": "FasL on BMDMs", "assay": "BMDMs stimulated with post-stroke serum (±hrDNase), FasL expression by FACS", "format": "cell-based, mice", "conditions": "BMDMs stimulated 10 minutes with post-stroke serum ±hrDNase; FasL 10 and 60 minutes after", "text": "Control-treated BMDMs received only FBS-containing culture media. […] Stimulation by secreted factors (left), and 2. Cell-cell contact (right)."}, "IL-1β": {"system": "IL-1β", "assay": "IL-1β concentration in post-stroke serum treated ex vivo ±hrDNase", "parameters": "species or system mice", "conditions": "ex vivo treatment of post-stroke mouse serum ±hrDNase", "protocol": "Total IL-1β and caspase-1 levels from patient plasma samples (diluted 1:10 in sterile PBS) were obtained using commercial assay kits according to the manufacturers instructions (Quantikine ELISA human IL-1β, Quantikine ELISA human caspase-1 R&D systems). Total IL-1β and IL-18 levels from murine plasma samples were measured using the Duoset ELISA IL-1β and the Duoset ELISA IL-18 kit according to the manufacturer's instructions (R&D systems)."}},
  "note": "Entries after “also recorded” stand apart in the source; their conditions may differ.",
  "data": [
    {"molecule": "B1", "values": [
      {"measurement": "splenic T cell counts / T cell survival", "setting": "splenic CD3^+ T cells", "value": "improved T cell survival after experimental stroke; also recorded: increased splenic T cell counts"},
      {"measurement": "splenic B cell survival", "setting": "splenic B cells", "value": "improved B cell survival after experimental stroke"},
      {"measurement": "monocyte inflammasome activation (caspase-1 probe FAM-FLICA)", "setting": "[1]", "value": "substantially reduced inflammasome activation in splenic monocytes; also recorded: decrease cf-dsDNA concentration in plasma and inflammasome activation in monocytes; also recorded: significantly reduced monocyte inflammasome activation"},
      {"measurement": "serum dsDNA (cf-dsDNA) concentration", "setting": "cf-dsDNA", "value": "reduction of cf-dsDNA blood concentrations; also recorded: decrease cf-dsDNA concentration in plasma; also recorded: decrease of serum dsDNA concentration in mice receiving hrDNase treatment after stroke to levels of sham-operated mice"},
      {"measurement": "serum dsDNA (cf-dsDNA) concentration", "setting": "cf-dsDNA; listed as human recombinant DNAse", "value": "efficient degradation of cf-dsDNA"},
      {"measurement": "FasL expression on monocytes / FasL+ myeloid cell population", "setting": "[2]", "value": "prevented the expansion of FasL+myeloid cell population; also recorded: reduced FasL expression on monocytes"},
      {"measurement": "FasL upregulation on serum-stimulated monocytes (BMDMs)", "setting": "FasL on BMDMs", "value": "completely prevented the FasL upregulation on serum-stimulated monocytes"},
      {"measurement": "IL-1β concentration of post-stroke serum", "setting": "IL-1β", "value": "IL-1β concentrations did not differ between the two stroke serum groups"},
      {"measurement": "IL-1β concentration of post-stroke serum", "setting": "IL-1β; listed as hrDNAse", "value": "did not affect the serum concentration of IL-1β"}
    ]}
  ]
}
